Data from patent US20140056878A1 (ANAPTYSBIO, published 2014).
Substitutions are numbered along the chain they refer to. Each block holds one binder with its values, some of them ahead of it.

Columns and labels:
complement protein C5 = complement protein C5 (UniProt P01031 19-673; P01031 678-1676); assay: cell-based or functional assay
C5-C345C = target: T1, C5-C345C (Homo sapiens (Human), UniProt P01031 1530-1676); assay: BIACORE screening
T1 construct: C-terminal 147 amino acid residues of the 1648 residue C5 protein; A Myc-tagged or Dylight-650-labelled form was used for FACS selection; In the BIACORE analyses it is named only 'C5-C345C' analyte, and no tag is stated; also called C345C domain of complement C5 protein; C5 domain C5-C345C
T1 sequence (P01031 1530-1676 limits assumed): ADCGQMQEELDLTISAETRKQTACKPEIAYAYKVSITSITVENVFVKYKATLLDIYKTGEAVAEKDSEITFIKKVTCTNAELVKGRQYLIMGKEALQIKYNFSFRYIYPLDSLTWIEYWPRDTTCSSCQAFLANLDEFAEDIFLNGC

Chain of complement protein C5 (P01031 19-673 limits assumed, chain 1 of 2): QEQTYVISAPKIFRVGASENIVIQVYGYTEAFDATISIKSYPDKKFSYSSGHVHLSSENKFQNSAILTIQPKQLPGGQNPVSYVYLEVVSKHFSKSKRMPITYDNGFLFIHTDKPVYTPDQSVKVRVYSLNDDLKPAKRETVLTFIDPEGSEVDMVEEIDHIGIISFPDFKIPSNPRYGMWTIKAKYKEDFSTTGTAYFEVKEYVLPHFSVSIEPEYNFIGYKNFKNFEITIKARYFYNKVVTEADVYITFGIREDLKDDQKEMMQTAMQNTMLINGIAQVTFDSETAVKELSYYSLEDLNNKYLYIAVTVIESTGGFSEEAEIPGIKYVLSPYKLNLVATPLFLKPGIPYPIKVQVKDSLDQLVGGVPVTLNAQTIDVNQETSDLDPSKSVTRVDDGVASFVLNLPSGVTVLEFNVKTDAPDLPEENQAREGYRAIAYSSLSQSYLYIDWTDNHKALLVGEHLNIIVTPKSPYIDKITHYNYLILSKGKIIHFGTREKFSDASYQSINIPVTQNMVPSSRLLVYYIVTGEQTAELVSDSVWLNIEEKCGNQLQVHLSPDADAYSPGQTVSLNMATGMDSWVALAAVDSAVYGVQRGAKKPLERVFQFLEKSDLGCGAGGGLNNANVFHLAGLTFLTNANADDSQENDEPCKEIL
Chain of complement protein C5 (P01031 678-1676 limits assumed, chain 2 of 2): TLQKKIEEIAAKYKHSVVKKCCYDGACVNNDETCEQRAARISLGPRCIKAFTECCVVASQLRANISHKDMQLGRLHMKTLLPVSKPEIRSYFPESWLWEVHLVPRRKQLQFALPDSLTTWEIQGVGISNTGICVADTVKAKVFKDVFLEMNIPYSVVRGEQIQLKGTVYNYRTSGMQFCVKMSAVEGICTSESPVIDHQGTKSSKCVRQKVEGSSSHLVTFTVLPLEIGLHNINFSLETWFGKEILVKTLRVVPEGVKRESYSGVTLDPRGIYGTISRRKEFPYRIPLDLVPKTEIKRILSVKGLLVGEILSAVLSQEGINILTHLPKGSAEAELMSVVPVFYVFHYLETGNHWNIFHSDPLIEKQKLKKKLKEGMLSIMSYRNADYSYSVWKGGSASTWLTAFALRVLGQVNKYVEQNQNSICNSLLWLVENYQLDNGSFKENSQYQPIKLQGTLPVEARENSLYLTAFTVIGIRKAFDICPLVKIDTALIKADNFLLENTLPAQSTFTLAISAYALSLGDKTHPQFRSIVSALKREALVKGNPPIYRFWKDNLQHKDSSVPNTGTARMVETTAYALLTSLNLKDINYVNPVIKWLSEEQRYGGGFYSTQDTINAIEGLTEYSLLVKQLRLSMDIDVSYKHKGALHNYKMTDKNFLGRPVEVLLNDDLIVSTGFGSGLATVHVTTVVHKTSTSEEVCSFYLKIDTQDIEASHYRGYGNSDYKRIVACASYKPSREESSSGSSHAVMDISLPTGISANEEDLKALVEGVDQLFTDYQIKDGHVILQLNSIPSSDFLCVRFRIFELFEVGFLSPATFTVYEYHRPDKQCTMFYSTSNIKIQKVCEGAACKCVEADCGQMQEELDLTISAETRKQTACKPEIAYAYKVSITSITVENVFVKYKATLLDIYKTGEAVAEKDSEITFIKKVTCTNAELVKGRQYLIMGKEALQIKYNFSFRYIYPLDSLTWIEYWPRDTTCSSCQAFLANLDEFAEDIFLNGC

B1: APE1142 (antibody, IgG1, V domains shown)
VH: EVQLLESGGGLVQPGGSLRLSCAASGFTFSSYAMTWVRQAPGKGLEWVSVISGSGSTYYADSVKGRFTISRDNSKNTLYLQMNSLRAEDTAVYYCARRGLRYNYFDYWGQGTTLTVSS
VL: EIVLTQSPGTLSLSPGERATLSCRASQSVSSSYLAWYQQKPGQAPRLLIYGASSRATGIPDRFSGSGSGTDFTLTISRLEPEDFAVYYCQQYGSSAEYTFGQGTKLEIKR
inhibition of hemolysis of antibody-coated sheep erythrocytes (classical complement pathway, 1% normal human serum) (complement protein C5): 1 µM

Kd (C5-C345C): 200 pM | fold improvement in KD over APE777 (C5-C345C): 1000 fold
B2: APE1224 (antibody, V domains shown)
VH: B1 VH with V50A
VL: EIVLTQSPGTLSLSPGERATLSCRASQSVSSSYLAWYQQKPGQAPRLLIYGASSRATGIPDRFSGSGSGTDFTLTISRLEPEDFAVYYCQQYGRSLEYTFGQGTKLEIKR
inhibition of hemolysis of antibody-coated sheep erythrocytes (classical complement pathway, 1% normal human serum) (complement protein C5): 1 µM
